{"source": "patent US6468762B1", "about": "“High specificity homocysteinases” (AntiCancer, Inc., priority 1997, dated 2002)", "key": {"CSCC[C@H](N)C(=O)O": {"tested_on": "CSCC[C@H](N)C(=O)O", "experiment": "Km of the novel homocysteinase expressed from the pAC2-1 clone (α-ketobutyrate/pyruvate assay, MBTH)", "assay_type": "biochemical, Trichomonas vaginalis", "details": "other: 37° C., pH 8.0, 100 mM phosphate buffer, 10 μM pyridoxal phosphate, 10 minutes, DL-homocysteine, L-cysteine or L-methionine separately, 10 μM to 1.6 mM", "excerpt": "(§1) In FIG. 1 (panels A and B) are depicted the amino acid sequences of two Trichomonas vaginalis homocysteinases, the first derived from a novel clone (pAC2-1) of the present invention, and the second, the enzyme derived from the known mgl1 gene (see also SEQ ID NOS: 10 and 12 for comparison of amino acids; SEQ ID NOS: 9 and 11 for comparison of encoding DNA's). It will be seen that pAC2-1 is characterized by the existence of three differences (mutations), compared to mgl1:\n(§2) Phe to Leu at amino acid position 47,\n(§3) Asp to Glu at amino acid position 172, and\n(§4) Ser to Tyr at amino acid position 308.\n(§5) In the first step of this assay, 1 ml volumes of 100 mM phosphate buffer pH 8.0, containing also 10 μM pyridoxal phosphate, […], respectively, were incubated, for 10 min at 37° C., with a sufficient sample (typically 50 μl) of crude cell extract (cells were sonicated, and the supernatant was recovered following centrifugation) to provide about 1-100 units of homocysteinase (“HCYase”) enzyme. The reactions were stopped by adding 0.1 ml of 50% TCA. The suspensions were then centrifuged using an Eppendorf centrifuge at 13 k rpm for 2 minutes. 0.5 ml samples of the supernatants were then added to 0.5 ml of 0.05% 3-methyl-2-benzothiazolinone hydrazone (“MBTH”) in 0.8 ml of 1M sodium acetate, pH 5.2 and incubated at 50° C. for 30 min. The amount of reaction products was determined for each sample, by spectrophotometry at OD320. The amount of protein was determined with a Bio-Rad 500-0006 kit (Bio-Rad, Richmond, Calif.) with bovine serum albumin as a standard. The enzyme specific activity was calculated as units/mg protein, with one unit of enzyme defined as the amount that catalyzes the formation of 1 μmol of α-ketobutyrate from homocysteine per minute. […]\n(§6) The reaction was stopped by adding 0.1 ml of 50% TCA. […] The amount of reaction product was then determined by spectrophotometry at OD320. The Kcat (turnover number) values reported in FIG. 5, were determined from the calculation of Vmax values using standard kinetic expressions and plots."}, "N[C@@H](CS)C(=O)O": {"tested_on": "N[C@@H](CS)C(=O)O", "experiment": "Km of the novel homocysteinase expressed from the pAC2-1 clone (α-ketobutyrate/pyruvate assay, MBTH)", "assay_type": "biochemical, Trichomonas vaginalis", "details": "other: 37° C., pH 8.0, 100 mM phosphate buffer, 10 μM pyridoxal phosphate, 10 minutes, DL-homocysteine, L-cysteine or L-methionine separately, 10 μM to 1.6 mM", "excerpt": "as §1, §2, §3, §4, §5, §6"}, "N[C@@H](CCS)C(=O)O": {"tested_on": "N[C@@H](CCS)C(=O)O", "experiment": "Km of the novel homocysteinase expressed from the pAC2-1 clone (α-ketobutyrate/pyruvate assay, MBTH)", "assay_type": "biochemical, Trichomonas vaginalis", "details": "other: 37° C., pH 8.0, 100 mM phosphate buffer, 10 μM pyridoxal phosphate, 10 minutes, DL-homocysteine, L-cysteine or L-methionine separately, 10 μM to 1.6 mM", "excerpt": "as §1, §2, §3, §4, §5, §6"}, "[1]": {"tested_on": "Trichomonas vaginalis homocysteinase, isolated native enzyme (may reflect expression from more than one gene)", "details": "native enzyme isolated from T. vaginalis; Lockwood et al., 1991; cited from earlier work"}, "[2]": {"details": "from the relative activity scale", "excerpt": "Homocysteinase enzymes of suitable catalytic activity for use as starting materials to obtain mutated forms can be derived from other Pseudomonas species, or from other bacteria, using routine screening procedures and assays that are recognized in the art."}, "[3]": {"experiment": "Homocysteinase specific activity, α-ketobutyrate assay", "assay_type": "biochemical", "protocol": "In the first step of this assay, 1 ml volumes of 100 mM phosphate buffer pH 8.0, containing also 10 μM pyridoxal phosphate, and different concentrations (25 μM-25 mM) of DL-homocysteine, or L-methionine, L-cysteine, respectively, were incubated, for 10 min at 37° C., with a sufficient sample (typically 50 μl) of crude cell extract (cells were sonicated, and the supernatant was recovered following centrifugation) to provide about 1-100 units of homocysteinase (“HCYase”) enzyme. The reactions were stopped by adding 0.1 ml of 50% TCA. The suspensions were then centrifuged using an Eppendorf centrifuge at 13 k rpm for 2 minutes. 0.5 ml samples of the supernatants were then added to 0.5 ml of 0.05% 3-methyl-2-benzothiazolinone hydrazone (“MBTH”) in 0.8 ml of 1M sodium acetate, pH 5.2 and incubated at 50° C. for 30 min. The amount of reaction products was determined for each sample, by spectrophotometry at OD320. The amount of protein was determined with a Bio-Rad 500-0006 kit (Bio-Rad, Richmond, Calif.) with bovine serum albumin as a standard. The enzyme specific activity was calculated as units/mg protein, with one unit of enzyme defined as the amount that catalyzes the formation of 1 μmol of α-ketobutyrate from homocysteine per minute. The assay procedure can, of course, also be used with purified homocysteinase samples that provide, for example, 1-100 units of enzyme per assay test.\nAlternatively, an additional two stage strategy may be used. In the first stage, the partitioning material was DEAE Sepharose® FF, and loading and pre-washing were conducted with 20 mM sodium phosphate buffer, pH 7.2. Elution of the protein was accomplished using a linear gradient (8 ml/min) from 20 mM sodium phosphate buffer, pH 7.2 (solution A) to 20 mM sodium phosphate buffer, pH 7.2, 500 mM NaCl (solution B). In the second stage, the partitioning material was phenyl Sepharose® 6-FF, and loading and pre-washing were conducted with 0.6 M NH4SO4 in 20 mM sodium phosphate buffer, pH 7.2. Elution of the protein was accomplished using a linear gradient (5 ml/min) from 0.6 M NH4SO4, 20 mM sodium phosphate buffer, pH 7.2 (solution A) to 20 mM sodium phosphate buffer, pH 7.2, (solution B). The following purification results were obtained for this alternate procedure. The above-described cell-lysate contained 8400 units of homocysteinase at a specific activity (units/mg) of 5.2. Following completion of pre-column procedures, 6,300 units were recovered at a specific activity of 64 (about 75% yield). Upon completion of the DEAE Sepharose®-FF step (first column), 5,040 units were recovered at a specific activity of 172 (60% yield), while after the phenyl Sepharose® 6-FF step (second column), 4,200 units remained at a specific activity of 300 (50% yield).\nAn activity assay for the keto product of the α, γ or α,β-elimination (α-keto butryate for homocysteine) was carried out in a 1.5 ml Eppindorf tube using 1-ml. of 50 mM phosphate buffer pH 8.0 (also containing 10 μM pyridoxal phosphate and 20 mM homocysteine) for 10 minutes at 37° C., with varying amounts of enzyme. The reaction was stopped by adding 0.5 ml of 4.5% TCA. […]\nThe amount of reaction product was determined by spectrophotometry at OD335. […] The amount of protein was determined with the Lowry Reagent Kit (Sigma) with bovine serum albumin as a standard. The specific activity was calculated as units/mg protein, with one unit of enzyme defined as the amount that catalyzed the formation of 1 μmol of α-ketobutyrate/minute."}, "[4]": {"experiment": "Relative activity toward homocysteine versus cysteine or methionine", "assay_type": "biochemical", "details": "apparent activity", "protocol": "In the first step of this assay, 1 ml volumes of 100 mM phosphate buffer pH 8.0, containing also 10 μM pyridoxal phosphate, and different concentrations (25 μM-25 mM) of DL-homocysteine, or L-methionine, L-cysteine, respectively, were incubated, for 10 min at 37° C., with a sufficient sample (typically 50 μl) of crude cell extract (cells were sonicated, and the supernatant was recovered following centrifugation) to provide about 1-100 units of homocysteinase (“HCYase”) enzyme. The reactions were stopped by adding 0.1 ml of 50% TCA. The suspensions were then centrifuged using an Eppendorf centrifuge at 13 k rpm for 2 minutes. 0.5 ml samples of the supernatants were then added to 0.5 ml of 0.05% 3-methyl-2-benzothiazolinone hydrazone (“MBTH”) in 0.8 ml of 1M sodium acetate, pH 5.2 and incubated at 50° C. for 30 min. The amount of reaction products was determined for each sample, by spectrophotometry at OD320. The amount of protein was determined with a Bio-Rad 500-0006 kit (Bio-Rad, Richmond, Calif.) with bovine serum albumin as a standard. The enzyme specific activity was calculated as units/mg protein, with one unit of enzyme defined as the amount that catalyzes the formation of 1 μmol of α-ketobutyrate from homocysteine per minute. The assay procedure can, of course, also be used with purified homocysteinase samples that provide, for example, 1-100 units of enzyme per assay test. […]"}, "[5]": {"experiment": "Single enzyme assay detecting product hydrogen sulfide: contribution of homocysteine versus cysteine", "assay_type": "biochemical", "excerpt": "According to the preferred practice of the invention, homocysteinases are provided wherein the relative activities of said enzymes toward homocysteine versus cysteine are such that, by detecting product hydrogen sulfide, the apparent concentration of homocysteine measured in a patient sample (which reflects also a contribution from cysteine) is less that about 150%, preferably less than about 110%, and most preferably less than about 102%, of the actual value thereof. In a further preferred example of the invention, for example using the novel Trichomonas homocysteinase expressed from pAC2-1, the apparent concentration of homocysteine measured in a single enzyme assay reflects no more than about a 1% false contribution from cysteine.\nIn general, useful diagnostic information can be obtained when the amount of produced hydrogen sulfide attributable to homocysteine is about one half of the total. […] Preferably, however the fraction of total hydrogen sulfide detected in an assay that is attributable to homocysteine is at least 90%, preferably 95%, more preferably 98%, and most preferably 99% or greater. The 99% level is readily obtained according to the practice of the invention, for example using the homocysteinase represented by SEQ ID NO: 10. […]"}}, "data": [{"molecule": "Trichomonas vaginalis homocysteinase, pAC2-1 clone (recombinant in E. coli BL21 (DE3)), SEQ ID NO: 10; versus mgl1 (SEQ ID NO: 12): Phe47 to Leu, Asp172 to Glu, Ser308 to Tyr; N-terminal 6x His (Trichomonas vaginalis; D172E/F47L/S308Y)", "values": [{"measurement": "Km", "setting": "CSCC[C@H](N)C(=O)O", "result": 3.1, "unit": "mM"}, {"measurement": "Km", "setting": "N[C@@H](CS)C(=O)O", "result": 3.45, "unit": "mM"}, {"measurement": "Km", "setting": "N[C@@H](CCS)C(=O)O", "result": 4.8, "unit": "mM"}]}, {"molecule": "N[C@@H](CCS)C(=O)O", "note": "(racemic) [homocysteine]", "values": [{"measurement": "Km", "setting": "[1]", "result": "~0.5", "unit": "mM"}]}, {"molecule": "L-methionine-alpha-deamino-gamma-mercaptomethane lyase [P. putida enzyme]", "values": [{"measurement": "apparent preference for homocysteine over cysteine", "setting": "[2]", "result": "~10", "unit": "fold"}]}, {"molecule": "SEQ ID NO: 10: recombinant Trichomonas vaginalis homocysteinase from E. coli clone pAC2-1 (ATCC 98549), with 6 N-terminal histidine residues (protein, N-terminal His6 tag, recombinant Trichomonas vaginalis homocysteinase from E. coli clone pAC2-1 (ATCC 98549), with 6 N-terminal histidine residues) MHHHHHHMSHERMTPATACIHANPQKDQFGAAIPPIYQTSTFVFDNCQQGGNRLAGQESGYIYTRLGNPTVSNLEGKIAFLEKTEACVATSSGMGAIAATVLTILKAGDHLISDECLYGCTHALFEHALTKFGIQVDFINTAIPGEVKKHMKPNTKIVYFETPANPTLKIIDMERVCKEAHSQEGVLVIADNTFCSPMITNPVDFGVDVVVHSATKYINGHTDVVAGLICGKADLLQQIRMVGIKDITGSVISPHDAWLITRGLSTLNIRMKAESENAMKVAEYLKSHPAVEKVYYPGFEDHEGHDIAKKQMRMYGSMITFILKSGFEGAKKLLDNLKLITLAVSLGGCESLIQHPASMTHAVVPKEEREAAGITDGMIRLSVGIEDADELIADFKQGLDALL", "values": [{"measurement": "specific activity", "setting": "[3]; after DEAE Sepharose-FF step", "result": 172, "unit": "units/mg"}, {"measurement": "specific activity", "setting": "[3]; after phenyl Sepharose 6-FF step", "result": 300, "unit": "units/mg"}, {"measurement": "specific activity", "setting": "[3]; after pre-column procedures", "result": 64, "unit": "units/mg"}, {"measurement": "specific activity", "setting": "[3]; cell-lysate", "result": 5.2, "unit": "units/mg"}, {"measurement": "specific activity", "setting": "[3]; commercial product HYase from AntiCancer, Inc", "result": 40, "unit": "units/mg"}, {"measurement": "activity for homocysteine relative to cysteine and methionine", "setting": "[4]", "result": "at least 100 fold"}, {"measurement": "fraction of total hydrogen sulfide detected that is attributable to homocysteine", "setting": "[5]; single enzyme assay of patient samples", "result": "≥ 99", "unit": "%"}, {"measurement": "false contribution from cysteine to apparent homocysteine concentration", "setting": "[5]; single enzyme assay, product hydrogen sulfide detected", "result": "≤ 1", "unit": "%"}]}]}
